Measured values published in patent US20250161358A1 (UTC THERAPEUTICS SHANGHAI, published 2025).

T1: CD7-Fc recombinant protein (human, UniProt P09564 26-180)
T1 construct: also called CD7-Fc protein; human CD7-Fc
T1 sequence (looked up): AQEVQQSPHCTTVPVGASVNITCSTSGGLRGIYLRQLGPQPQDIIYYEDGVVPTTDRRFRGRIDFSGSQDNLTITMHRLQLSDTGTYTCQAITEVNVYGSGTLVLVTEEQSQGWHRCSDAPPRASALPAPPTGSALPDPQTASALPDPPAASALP


What follows are binders tested against T1, CD7-Fc recombinant protein (assay: flow cytometry, CAR-T cells stained with CD7-Fc protein (FIG. 4)).

Binder | binding result
anti-CD7 scFv-H18 antibody (scFv, V domains shown, Fully human scFv from the phage library) VH: not shown VL: QSALTQPPSASGSPGQSVTISCTGTSSDVGGYTYVSWYQQHPGKAPKLMIYEVSKRPSGVPDRFSGSKSGNTASLTVSGLQAEDEADYYCSSYAGSNNVVFGGGTELTVL | binds
anti-CD7 scFv-H13 antibody (scFv, V domains shown, Fully human scFv from the phage library) VH: QVQLVQSGAEVKKPGSSVKVSCKASGGTFSSYAISWVRQAPGQGLEWMGGIIPIFGTANYAQKFQGRVTITADESTSTAYMELSSLRSEDTAVYYCARDQGVVPAAEIPYYDFWSGPPFDPWGQGTLVTVSS VL: not shown | binds
anti-CD7 scFv-H15 antibody (scFv, V domains shown, Fully human scFv from the phage library) VH: EVQLVQSGAEVKKPGASVKVSCKVSGYTLTELSMHWVRQAPGKGLEWMGGFDPEDGETIYAQKFQGRVTMTEDTSTDTAYMELSSLRSEDTAVYYCATERASGSYEYYFDYWGQGTLVTVSS VL: AIQLTQSPSSVSASVGDRVTITCRASQGISSWLAWYQQKPGKAPKLLIYAASSLQSGVPSRFSGSGSGTDFTLTISSLQPEDFATYYCQQANSFPYTFGQGTKVEIK | binds

Each binder was assayed against T1, CD7-Fc recombinant protein (assay: flow cytometry, CAR-T cells stained with CD7-Fc protein).

Binder | binding result
anti-CD7 scFv-H9 antibody (scFv, V domains shown, Fully human scFv from the phage library; also called anti-CD7 CAR-H9) VH: not shown VL: QSVLTQPPSASGAPGERVTISCSGSSSNIGSNYVYWYQQLPGTAPKLLIYNSNQRPSGVPDRFSGSKSGASASLAISGLRSEDEADYYCAAWDDSLSGPVFGGGTKVTVL | binds
anti-CD7 scFv-H6 antibody (scFv, V domains shown, Fully human scFv from the phage library) VH: not shown VL: QSALTQPPSASGSPGQSVTISCTGTSSDVGGYNYVSWYQQHPGKAPKLMIYEVRKRPSGVPDRFSGSKSGNTASLTVSGLQADDEADYYCSSYAGSNNLGFGGGTKLTVL | binds
anti-CD7 scFv-H5 antibody (scFv, V domains shown, Fully human scFv from the phage library) VH: QVQLVQSGAEVKKPGESLRISCKGSGYSFTSYWISWVRQMPGKGLEWMGRIDPSDSYTNYSPSFQGHVTISADKSISTAYLQWSSLKASDTAMYYCARHPVTNYYYYGMDVWGQGTTVTVSS VL: DIRLTQSPSTVSASIGDRVTITCRASQGISNWLTWYQQKPGKAPKLLIYSASTLQSGVPSRFSGSGSGTDFTLTISSLQPEDFATYYCQQANNLRTLTFGGGTKVDIK | binds
anti-CD7 scFv-H8 antibody (scFv, V domains shown, Fully human scFv from the phage library) VH: QVQLQESGAGLLKPSETLSLTCAVYGGSISGYYWSWIRQPPGKGLEWIGEINHSGSTNYNPSLKSRVTISVDTSKNQFSLKLSSVTAADTAVYYCARGGGSSGYYLDYWGQGALVTVSS VL: QSVLTQPPSVSEAPRQRVTISCSGSSSNIGNNAVNWYQQLPGKAPKLLIYYDDLLPSGVSDRFSGSKSGTSASLTISGLQSEDGADYYCASWDDSLNGRVFGGGTKLTVL | binds
anti-CD7 scFv-H12 antibody (scFv, V domains shown, Fully human scFv from the phage library) VH: not shown VL: QPVLTQPPSASGTPGQRVIISCSGSGSNIGSNTVTWYRQFPGAAPKTLIYNSKLRPSWVPDRFTASKSGTSASLAISGLQSEDEADYYCAAWDDSLNGVVFGGGTKLTVL | binds
anti-CD7 scFv-H7 antibody (scFv, V domains shown, Fully human scFv from the phage library; also called anti-CD7 CAR-H7) VH: EVQLVESGGGLIQPGGSLRLSCAASGFTVSSNYMSWVRQAPGKGLEWVSVIYSGGSTYYADSVKGRFTISRDNSKNTLYLQMNSLRAEDTAVYYCATDYGELHDAFDIWGQGTTVTVSS VL: not shown | binds
anti-CD7 scFv-H10 antibody (scFv, V domains shown, Fully human scFv from the phage library; also called anti-CD7 CAR-H10) VH: QLQLQESGGGLVQPGGSLRLSCAASGFTFSSYAMSWVRQAPGKGLEWVSAISGSGGSTYYADSVKGRFTISRDNSKNTLYLQMNSLRAEDTAVYYCAKGYSGYPAVLDYWGQGTLVTVSS VL: QSALTQPASVSGSPGQSITISCTGTSSDVGGSKYVSWYQQHPGKAPKLMIYDVSYRPSGVSDRFSGSKSGNTASLTISGLQAEDEADYYCSSYTSNSNLPLFGGGTKVTVL | binds
anti-CD7 scFv-H4 antibody (scFv, V domains shown, Fully human scFv from the phage library) VH: QVQLVQSGGGLVQPGGSLRLSCAASGFTFSTYWMSWVRQAPGKGLEWVANINQDGTEKYYVDSVKGRFTISRDNAKNSLYLQMNSLRAEDTAVYYCAREPGIALDYWGQGTLVTVSS VL: QSVVTQPPSVSAAPGQKVTISCSGSSSNIGNNYVSWYQQLPGTAPKLLIYDNNKRPSGIPDRFSGSKSGTSATLGITGLQTGDEADYYCGTWDSSLSAGDWVFGGGTKLTVL | binds
